A word on the Kd: it is the concentration at which binding is half-saturated. The IC50 is the concentration that inhibits the measured activity by half. Lower therefore signals inhibition by little substance.

In one test the target is FcγRIIIa 158F (human) (UniProt P08637). Briefly: BLI.
For test [1], the target named is T1, CD20 (human, UniProt P11836).
T1 chain: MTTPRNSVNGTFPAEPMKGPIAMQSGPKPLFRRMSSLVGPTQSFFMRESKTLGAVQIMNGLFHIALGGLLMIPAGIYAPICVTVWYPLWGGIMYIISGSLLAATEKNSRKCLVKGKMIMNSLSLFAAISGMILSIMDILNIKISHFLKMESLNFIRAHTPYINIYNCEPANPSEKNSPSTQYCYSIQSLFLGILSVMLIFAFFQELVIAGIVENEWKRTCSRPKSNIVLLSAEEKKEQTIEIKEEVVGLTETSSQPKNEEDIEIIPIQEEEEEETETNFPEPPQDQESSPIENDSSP
Briefly: FACS, Raji cells, 4C.

Test [2] addresses T1, CD20. The test is described as follows: FACS, Raji cells, 4C. In general terms: Flow cytometry measures light scatter and fluorescence of single cells or particles in a stream.
Test [3] has as its target T1, CD20. Briefly: FACS, Wil2-s cells, 4C.
In test [4] the target is T1, CD20. Briefly: FACS, Wil2-s cells, 4C.

FcγRIIIa 158F (human), sequence (P08637 17-208): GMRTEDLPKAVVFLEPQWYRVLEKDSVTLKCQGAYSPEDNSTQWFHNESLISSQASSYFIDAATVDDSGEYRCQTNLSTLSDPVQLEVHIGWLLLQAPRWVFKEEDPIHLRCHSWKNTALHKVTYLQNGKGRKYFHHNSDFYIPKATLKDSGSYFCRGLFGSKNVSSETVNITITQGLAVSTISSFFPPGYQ

In the case of Obinutuzumab (Gazyva), in the test with FcγRIIIa 158F (human), the Kd turned out to be 226 nM.

B1: Rituximab (antibody)
chain 1: QVQLQQPGAELVKPGASVKMSCKASGYTFTSYNMHWVKQTPGRGLEWIGAIYPGNGDTSYNQKFKGKATLTADKSSSTAYMQLSSLTSEDSAVYYCARSTYYGGDWYFNVWGAGTTVTVSA
chain 2: QIVLSQSPAILSASPGEKVTMTCRASSSVSYIHWFQQKPGSSPKPWIYATSNLASGVPVRFSGSGSGTSYSLTISRVEAEDAATYYCQQWTSNPPTFGGGTKLEIK
Turning to B1, the Kd was determined as 12.7 nM with CD20 [1] and 16 nM with CD20 [4]. Further, the values for the IC50 with CD20 [2] and with CD20 [3] were 13.3 nM and 16.8 nM, respectively.

For the origin of these results see patent US20230203169 (published 2023).
